Assay results taken from patent US20220169740A1 (KINDRED BIOSCIENCES, published 2022).
Changes are numbered by the printed parent chain. Where “and” joins values, the source holds several entries; their conditions need not be identical. Identical values can stand only once.

T1: canine FcRn with a poly-His tag / canine B2M heterodimer complex (canine, biotinylated where immobilised on the Biacore chip)
T1 construct: Made in HEK cells, Ni-NTA purified; also called canine FcRn/B2M complex; soluble canine FcRn/B2M complex
T1 chain: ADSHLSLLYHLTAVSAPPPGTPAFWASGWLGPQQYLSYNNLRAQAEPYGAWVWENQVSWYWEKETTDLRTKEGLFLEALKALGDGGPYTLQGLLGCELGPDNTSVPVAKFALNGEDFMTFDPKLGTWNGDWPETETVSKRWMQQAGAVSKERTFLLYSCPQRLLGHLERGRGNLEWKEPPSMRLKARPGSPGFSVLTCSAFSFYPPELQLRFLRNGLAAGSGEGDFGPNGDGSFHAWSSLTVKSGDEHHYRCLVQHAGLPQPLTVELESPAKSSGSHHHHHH
T1 b2m: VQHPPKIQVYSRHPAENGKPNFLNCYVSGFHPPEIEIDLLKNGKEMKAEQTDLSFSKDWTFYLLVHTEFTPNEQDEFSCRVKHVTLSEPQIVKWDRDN

B1: Feline TrkA ECD v3-wildtype feline IgG2 Fc (Fc fusion)
chain: VSFPASVQLHAAVELHHWCIPFSVDGQPAPSLRWLFNGSVLNETSFIFTEFLEPAANETVRHGCLRLNQPTHVNNGNYTLLAANPSGRAAASVLAAFMDNPSGGGSGGGSPKTASTIESKTGEGPKCPVPEIPGAPSVFIFPPKPKDTLSISRTPEVTCLVVDLGPDDSNVQITWFVDNTEMHTAKTRPREEQFNSTYRVVSVLPILHQDWLKGKEFKCKVNSKSLPSAMERTISKAKGQPHEPQVYVLPPTQEELSENKVSVTCLIKGFHPPDIAVEWEITGQPEPENNYQTTPPQLDSDGTYFLYSRLSVDRSHWQRGNTYTCSVSHEALHSHHTQKSLTQSPGK
notes: CHO; also called feline TrkA ECD v3 fusion polypeptide; feline TrkA v3
B2: Feline TrkA ECD v2-wildtype feline IgG2 Fc (Fc fusion)
chain: VSFPASVQLHAAVELHHWCIPFSVDGQPAPSLRWLFNGSVLNETSFIFTEFLEPAANETVRHGCLRLNQPTHVNNGNYTLLAANPSGRAAASVLAAFMDNPFEFNPEDPIPVSFSPVDSNSTSGDSGGGSGGGSPKTASTIESKTGEGPKCPVPEIPGAPSVFIFPPKPKDTLSISRTPEVTCLVVDLGPDDSNVQITWFVDNTEMHTAKTRPREEQFNSTYRVVSVLPILHQDWLKGKEFKCKVNSKSLPSAMERTISKAKGQPHEPQVYVLPPTQEELSENKVSVTCLIKGFHPPDIAVEWEITGQPEPENNYQTTPPQLDSDGTYFLYSRLSVDRSHWQRGNTYTCSVSHEALHSHHTQKSLTQSPGK
notes: CHO; also called feline TrkA ECD v2 fusion polypeptide; feline TrkA v2
B3: Canine TrkA ECD v3-wildtype canine IgG-B Fc (Fc fusion)
chain: VSFPASVQLHEAVELHHWCIPFSVDGQPAPSLRWLFNGSVLNETSFIFTEFLEPVANETVRHGCLRLNQPTHVNNGNYTLLAANPSGRAAAFVMAAFMDNPSGGGSGGGSRPPDCPKCPAPEMLGGPSVFIFPPKPKDTLLIARTPEVTCVVVDLDPEDPEVQISWFVDGKQMQTAKTQPREEQFNGTYRVVSVLPIGHQDWLKGKQFTCKVNNKALPSPIERTISKARGQAHQPSVYVLPPSREELSKNTVSLTCLIKDFFPPDIDVEWQSNGQQEPESKYRTTPPQLDEDGSYFLYSKLSVDKSRWQRGDTFICAVMHEALHNHYTQESLSHSPGK
notes: CHO; also called canine TrkA ECD v3 fusion polypeptide; canine TrkA v3
B4: Equine TrkA ECD v2-variant equine IgG2 Fc (Protein A+, C1q-, CD16-) (Fc fusion)
chain: VSFPASVHLQTAVEQHHWCIPFSVDGQPAPTLRWLFNGSVLNETSFIFTEFLESAANETMRHGCLRLNQPTHVNNGNYTLLATNPYGQDSASVMVAFMDNPFEFNPEDPIPVSFSPVDTNSTSRDPPCVLSAEGVIPIPSVPKPQCPPYTHSKFLGGPSVFIFPPNPKDTLMISRTPVVTCVVVNLSDQYPDVQFSWYVDNTEVHSAITKQREAQFNSTYRVVSVLPIQHQDWLSGKEFKCSVTNVGVPQPISRAISRGKGPSRVPQVYVLPPHPDELAKSKVSVTCLVKDFYPPDISVEWQSNRWPELEGKYSTTPAQLDGDGSYFLYSKLSLETSRWQQVESFTCAVMHEALHNHYTKTDISESLGK
notes: CHO; also called equine TrkA ECD v2 fusion polypeptide; equine TrkA v2
B5: Canine TrkA ECD v2-wildtype canine IgG-B Fc (Fc fusion)
chain: VSFPASVQLHEAVELHHWCIPFSVDGQPAPSLRWLFNGSVLNETSFIFTEFLEPVANETVRHGCLRLNQPTHVNNGNYTLLAANPSGRAAAFVMAAFMDNPFEFNPEDPIPVSFSPVDTNSTSGDSGGGSGGGSRPPDCPKCPAPEMLGGPSVFIFPPKPKDTLLIARTPEVTCVVVDLDPEDPEVQISWFVDGKQMQTAKTQPREEQFNGTYRVVSVLPIGHQDWLKGKQFTCKVNNKALPSPIERTISKARGQAHQPSVYVLPPSREELSKNTVSLTCLIKDFFPPDIDVEWQSNGQQEPESKYRTTPPQLDEDGSYFLYSKLSVDKSRWQRGDTFICAVMHEALHNHYTQESLSHSPGK
notes: made in CHO cells; also called canine TrkA ECD v2 fusion polypeptide; canine TrkA v2
B6: fusion protein comprising wild-type canine IgG-B Fc (Fc fusion, not shown: large carriers)
chain: PAPEMLGGPSVFIFPPKPKDTLLIARTPEVTCVVVDLDPEDPEVQISWFVDGKQMQTAKTQPREEQFNGTYRVVSVLPIGHQDWLKGKQFTCKVNNKALPSPIERTISKARGQAHQPSVYVLPPSREELSKNTVSLTCLIKDFFPPDIDVEWQSNGQQEPESKYRTTPPQLDEDGSYFLYSKLSVDKSRWQRGDTFICAVMHEALHNHYTQESLSHSPGK
B7: wild-type canine IgG-B Fc polypeptide (other)
chain: B6 chain
notes: Expressed from plasmid pFASEBA in E. coli with an SASA tag; also called wildtype IgG-B Fc polypeptide; not shown: SASA tag
B8: variant canine IgG-B Fc polypeptide L(23)Y (other)
chain: B6 chain with L23Y
notes: E. coli expressed, with SASA tag; also called Y00; not shown: SASA tag
B9: fusion protein comprising variant canine IgG-B Fc K(93)R (Fc fusion, not shown: large carriers)
chain: B6 chain with K93R
notes: also called variant canine IgG-B Fc K(93)R fusion protein
B10: variant canine IgG-B Fc polypeptide L(23)F (other)
chain: B6 chain with L23F
notes: E. coli expressed, with SASA tag; also called F00; not shown: SASA tag
B11: variant canine IgG-B Fc polypeptide YTE (other, not shown: small tags and cut ends)
chain: B6 chain with L23Y, A25T, T27E
notes: also called Leu23Tyr Ala25Thr Thr27Glu
B12: variant canine IgG-B polypeptide L(23)S (other)
chain: B6 chain with L23S
notes: not shown: SASA tag
B13: variant canine IgG-B Fc polypeptide L(23)M (other)
chain: B6 chain with L23M
notes: not shown: SASA tag
B14: Equine TrkA ECD v3-variant equine IgG2 Fc (Protein A+, C1q-, CD16-) (Fc fusion)
chain: VSFPASVHLQTAVEQHHWCIPFSVDGQPAPTLRWLFNGSVLNETSFIFTEFLESAANETMRHGCLRLNQPTHVNNGNYTLLATNPYGQDSASVMVAFMDNPPPCVLSAEGVIPIPSVPKPQCPPYTHSKFLGGPSVFIFPPNPKDTLMISRTPVVTCVVVNLSDQYPDVQFSWYVDNTEVHSAITKQREAQFNSTYRVVSVLPIQHQDWLSGKEFKCSVTNVGVPQPISRAISRGKGPSRVPQVYVLPPHPDELAKSKVSVTCLVKDFYPPDISVEWQSNRWPELEGKYSTTPAQLDGDGSYFLYSKLSLETSRWQQVESFTCAVMHEALHNHYTKTDISESLGK
notes: CHO; also called equine TrkA ECD v3 fusion polypeptide; equine TrkA v3

Assays:
[1] = target: T2, human NGF (Sino Biological, Inc.; Catalog No. 11050-HNAC) (human, UniProt P01138 122-241, limits assumed, biotinylated in the Octet assay of Example 3 (sites not given); not biotinylated in the TF1 assay); experiment: BLI (Octet); biotinylated human NGF on streptavidin tips, TrkA-Fc 25 ug/mL; 1:1 fit
T2 construct: also called nerve growth factor; biotinylated NGF
T2 sequence (P01138 122-241 limits assumed): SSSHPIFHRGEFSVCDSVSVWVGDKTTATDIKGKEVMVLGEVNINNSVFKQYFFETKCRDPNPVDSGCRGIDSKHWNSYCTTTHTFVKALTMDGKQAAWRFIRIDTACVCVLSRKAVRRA
Description: Binding activity of canine, feline, and equine TrkA ECD v2 and v3 fusion polypeptides prepared in Example 2 (SEQ ID NOs: 16, 17, 19, 20, 22, and 23) to commercially-available human NGF was considered. The binding analysis was performed using a biosensor Octet as follows. Briefly, human NGF (Sino Biological, Inc.; Catalog No. 11050-HNAC) was biotinylated. The free unreacted biotin was removed from biotinylated NGF by extensive dialysis. Biotinylated NGF was captured on streptavidin sensor tips. The association of NGF with TrkA-Fc (25 ug/mL) was monitored for 600 seconds. Dissociation was monitored for 600 seconds. A buffer only blank curve was subtracted to correct for any drift. The data were fit to a 1:1 binding model using ForteBio™ data analysis software to determine the kₒₙ, koff, and the Kd. The buffer for dilutions and all binding steps was: 20 mM phosphate, 150 mM NaCl, pH 7.2.
FIG. 1 and FIG. 2 are sensorgrams showing that canine, feline, and equine TrkA ECD v2 and v3 fusion polypeptides all bind NGF. […] Irrelevant canine and feline IgG-Fc fusion proteins were used as a negative control.

[2] = target: T2, human NGF (Sino Biological, Inc.; …); experiment: cell-based or functional assay
human C1q = human C1q (human, UniProt P02745 23-245; P02746 28-253; P02747 29-245); experiment: method not described
Chain of human C1q (P02745 23-245 limits assumed, chain 1 of 3): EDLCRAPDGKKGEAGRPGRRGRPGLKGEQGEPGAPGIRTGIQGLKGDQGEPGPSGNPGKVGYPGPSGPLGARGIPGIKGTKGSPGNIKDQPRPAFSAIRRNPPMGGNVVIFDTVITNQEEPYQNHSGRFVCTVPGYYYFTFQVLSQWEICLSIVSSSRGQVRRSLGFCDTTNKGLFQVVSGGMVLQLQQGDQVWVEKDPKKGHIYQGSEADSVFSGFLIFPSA
Chain of human C1q (P02746 28-253 limits assumed, chain 2 of 3): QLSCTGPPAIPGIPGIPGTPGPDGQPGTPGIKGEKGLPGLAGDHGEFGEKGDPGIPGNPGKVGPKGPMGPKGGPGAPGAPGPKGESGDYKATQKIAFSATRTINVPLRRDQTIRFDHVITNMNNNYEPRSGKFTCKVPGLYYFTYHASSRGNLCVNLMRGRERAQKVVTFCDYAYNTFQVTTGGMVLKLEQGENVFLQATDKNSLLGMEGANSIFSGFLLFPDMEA
Chain of human C1q (P02747 29-245 limits assumed, chain 3 of 3): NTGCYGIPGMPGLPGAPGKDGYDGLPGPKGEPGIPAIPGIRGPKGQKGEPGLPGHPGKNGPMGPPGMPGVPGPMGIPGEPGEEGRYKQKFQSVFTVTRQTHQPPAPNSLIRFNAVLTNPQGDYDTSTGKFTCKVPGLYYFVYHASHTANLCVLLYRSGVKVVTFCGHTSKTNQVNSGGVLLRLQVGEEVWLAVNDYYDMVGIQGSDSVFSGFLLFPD

[3] = target: T1, canine FcRn with a poly-His tag / …; experiment: SPR (Biacore T200), pH 6.0; biotinylated canine FcRn/B2M complex immobilised, Fc polypeptide as analyte
Source text: The koff of each of the lead variant canine IgG-B polypeptides was further investigated. Biotinylated canine FcRn/B2M complex was immobilized on a Biacore chip and exposed to each variant canine IgG-B polypeptide as an analyte using a Biacore T200 at pH 6.0.

[4] = target: T1, canine FcRn with a poly-His tag / …; experiment: SPR (Biacore T200), steady state, 25 C, pH 6.0; SASA-tagged Fc polypeptide immobilised on CM5 chip, canine FcRn/B2M complex 12.5-200 nM as analyte
Description: Binding analysis was performed using a Biacore T200. Briefly, the lead variant canine IgG-B Fc polypeptides with an SASA tag were each immobilized to a Series S Sensor Chip CM5. […] A running buffer of 10 mM HEPES, 500 mM NaCl, 3 mM EDTA, 0.005% Tween-20, pH 6.0 was used. A buffer only blank curve was used as a control.

| Binder | Kd [1] [nM] | koff [3] | Kd [4] [nM] | other results |
| --- | --- | --- | --- | --- |
| B1 | ~1 | – | – | – |
| B2 | ~1 | – | – | – |
| B3 | ~1 | – | – | – |
| B4 | ~1 | – | – | IC50, TF1 cell proliferation assay (CellTiter-Glo luminescence; NGF at 10 ng/ml) [2]: 5.4 nM |
| B5 | ~1 | – | – | – |
| B6 | – | – | – | binding result (human C1q): binds |
| B7 | – | 0.122 s⁻¹ | 1250 | – |
| B8 | – | 0.0138 s⁻¹ | 113 | – |
| B9 | – | – | – | binding result (human C1q): binds |
| B10 | – | 0.0631 s⁻¹ and 0.0847 s⁻¹ | 367 | – |
| B11 | – | – | 86.2 | – |
| B12 | – | 0.241 s⁻¹ | – | – |
| B13 | – | 0.126 s⁻¹ | 406 | – |
| B14 | ~1 | – | – | – |
